Reference: the supplement of paper PMC10567573

B1: KLHL14 (parent)
chain: YVIGGRNETGYLSSVECYNLETNE

Variants of: B1
Assay: protein stability index of a GFP-peptide fusion (GPS, HEK-293T) (PSI 1-6); higher = more stable
Conditions: c terminus: a fixed tail appended
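Further: lentivirally expressed fusions sorted by FACS into six bins by GFP to DsRed ratio, PSI derived from sequencing read proportions per bin multiplied by bin number.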

Variant | protein stability index
YVIKGRNETGYLSSVECYNLETNE | 2.34
YVILGRNETGYLSSVECYNLETNE | 1.47
YVIMGRNETGYLSSVECYNLETNE | 2.31
YVINGRNETGYLSSVECYNLETNE | 1.89
YVIPGRNETGYLSSVECYNLETNE | 2.56
YVIQGRNETGYLSSVECYNLETNE | 2.55
YVIRGRNETGYLSSVECYNLETNE | 1.71
YVISGRNETGYLSSVECYNLETNE | 2.46
YVITGRNETGYLSSVECYNLETNE | 1.5
YVIVGRNETGYLSSVECYNLETNE | 1.3
YVIWGRNETGYLSSVECYNLETNE | 2.32
YVIYGRNETGYLSSVECYNLETNE | 2.42
YVIGARNETGYLSSVECYNLETNE | 1.71
YVIGCRNETGYLSSVECYNLETNE | 1.93
YVIGDRNETGYLSSVECYNLETNE | 3.12
YVIGERNETGYLSSVECYNLETNE | 3.15
YVIGFRNETGYLSSVECYNLETNE | 2.41
YVIGHRNETGYLSSVECYNLETNE | 1.74
YVIGIRNETGYLSSVECYNLETNE | 2.24
YVIGKRNETGYLSSVECYNLETNE | 1.76
YVIGLRNETGYLSSVECYNLETNE | 2.82
YVIGMRNETGYLSSVECYNLETNE | 1.69
YVIGNRNETGYLSSVECYNLETNE | 1.92
YVIGPRNETGYLSSVECYNLETNE | 1.89

Variant | protein stability index
YVIGQRNETGYLSSVECYNLETNE | 2.1
YVIGRRNETGYLSSVECYNLETNE | 1.71
YVIGSRNETGYLSSVECYNLETNE | 2.31
YVIGTRNETGYLSSVECYNLETNE | 2.33
YVIGVRNETGYLSSVECYNLETNE | 1.49
YVIGWRNETGYLSSVECYNLETNE | 2.92
YVIGYRNETGYLSSVECYNLETNE | 1.72
YVIGGANETGYLSSVECYNLETNE | 2.93
YVIGGCNETGYLSSVECYNLETNE | 2.21
YVIGGDNETGYLSSVECYNLETNE | 2.57
YVIGGENETGYLSSVECYNLETNE | 2.97
YVIGGFNETGYLSSVECYNLETNE | 1.5
YVIGGGNETGYLSSVECYNLETNE | 1.92
YVIGGHNETGYLSSVECYNLETNE | 1.9
YVIGGINETGYLSSVECYNLETNE | 1.67
YVIGGKNETGYLSSVECYNLETNE | 2.05
YVIGGLNETGYLSSVECYNLETNE | 2.09
YVIGGMNETGYLSSVECYNLETNE | 1.69
YVIGGNNETGYLSSVECYNLETNE | 2.2
YVIGGPNETGYLSSVECYNLETNE | 2.51
YVIGGQNETGYLSSVECYNLETNE | 2.77
YVIGGSNETGYLSSVECYNLETNE | 2.35
YVIGGTNETGYLSSVECYNLETNE | 2.52
YVIGGVNETGYLSSVECYNLETNE | 1.87

Variant | protein stability index
YVIGGWNETGYLSSVECYNLETNE | 1.96
YVIGGYNETGYLSSVECYNLETNE | 1.69
YVIGGRAETGYLSSVECYNLETNE | 2.03
YVIGGRCETGYLSSVECYNLETNE | 1.7
YVIGGRDETGYLSSVECYNLETNE | 2.5
YVIGGREETGYLSSVECYNLETNE | 2.59
YVIGGRFETGYLSSVECYNLETNE | 2.29
YVIGGRGETGYLSSVECYNLETNE | 1.99
YVIGGRHETGYLSSVECYNLETNE | 2.45
YVIGGRIETGYLSSVECYNLETNE | 1.74
YVIGGRKETGYLSSVECYNLETNE | 2.27
YVIGGRLETGYLSSVECYNLETNE | 2.36
YVIGGRMETGYLSSVECYNLETNE | 1.66
YVIGGRPETGYLSSVECYNLETNE | 1.84
YVIGGRQETGYLSSVECYNLETNE | 1.91
YVIGGRRETGYLSSVECYNLETNE | 2.38
YVIGGRSETGYLSSVECYNLETNE | 2.63
YVIGGRTETGYLSSVECYNLETNE | 1.85
YVIGGRVETGYLSSVECYNLETNE | 1.71
YVIGGRWETGYLSSVECYNLETNE | 1.63
YVIGGRYETGYLSSVECYNLETNE | 1.5
YVIGGRNATGYLSSVECYNLETNE | 1.45
YVIGGRNDTGYLSSVECYNLETNE | 1.56
YVIGGRNFTGYLSSVECYNLETNE | 1.99

Variant | protein stability index
YVIGGRNGTGYLSSVECYNLETNE | 2.44
YVIGGRNHTGYLSSVECYNLETNE | 2.02
YVIGGRNITGYLSSVECYNLETNE | 1.81
YVIGGRNKTGYLSSVECYNLETNE | 1.89
YVIGGRNLTGYLSSVECYNLETNE | 1.32
YVIGGRNMTGYLSSVECYNLETNE | 2.21
YVIGGRNNTGYLSSVECYNLETNE | 1.8
YVIGGRNPTGYLSSVECYNLETNE | 1.16
YVIGGRNQTGYLSSVECYNLETNE | 1.88
YVIGGRNRTGYLSSVECYNLETNE | 1.95
YVIGGRNSTGYLSSVECYNLETNE | 2.09
YVIGGRNTTGYLSSVECYNLETNE | 1.78
YVIGGRNVTGYLSSVECYNLETNE | 1.78
YVIGGRNWTGYLSSVECYNLETNE | 2.08
YVIGGRNYTGYLSSVECYNLETNE | 1.84
YVIGGRNEAGYLSSVECYNLETNE | 1.9
YVIGGRNECGYLSSVECYNLETNE | 1.73
YVIGGRNEDGYLSSVECYNLETNE | 2.23
YVIGGRNEEGYLSSVECYNLETNE | 2.67
YVIGGRNEFGYLSSVECYNLETNE | 2.21
YVIGGRNEGGYLSSVECYNLETNE | 1.69
YVIGGRNEHGYLSSVECYNLETNE | 1.6
